We go through 6 molecules from US20260078190A1 (SYSTIMMUNE, published 2026).

The target in test [1] is T1, SI-2C1, dimeric EGFR ECD fused to rabbit Fc (UniProt P00533 25-645, limits assumed).
T1 construct: extracellular domain; Made in house; also called dimeric EGFR ECD reagent; not shown: rabbit Fc
As to the kind of experiment: ELISA, plate coated with dimeric EGFR ECD-rabbit Fc (SI-2C1) at 3 µg/mL, antibody from 50 µg/mL in 3x dilutions, goat anti-human IgG-HRP, OD 450 nm. In general terms: ELISA stands for enzyme-linked immunosorbent assay.

The target in test [2] is T1, SI-2C1, dimeric EGFR ECD fused to …. The test is described as follows: ELISA, plate coated with dimeric EGFR ECD-rabbit Fc (SI-2C1) at 3 µg/mL, antibody from 10 µg/mL in 3x dilutions, goat anti-human IgG-HRP, OD 450 nm.
The target in test [3] is T2, Her3 ECD (Sino Biological, 10201-H08H-10) (UniProt P21860 20-643).
T2 construct: extracellular domain; Bought reagent; also called Her3 extracellular domain
As to the kind of experiment: BLI (BLItz), same tip after the EGFR step; second step Her3 ECD 200 nM, 120 s association, 60 s dissociation.

Test [4] has as its target T2, Her3 ECD (Sino Biological, …). The test is described as above. This is another data set of the same source.
Test [5] concerns the target T3, Extracellular domain (Met 1-Ser 645) of human EGFR with a C-terminal polyhistidine tag (human, UniProt P00533 25-645).
T3 construct: range 1-645; also called EGFR protein; EGFR ECD; not shown: C-terminal polyhistidine tag
The test is described as follows: BLI (Octet Red96), antibody on anti-human Fc sensor, curve fit at EGFR 100 nM. On the technique in general: Biolayer interferometry detects binding as a change in optical thickness at a sensor tip.

Test [6] concerns the target T4, EGFR on A431 and FaDu tumor cells (UniProt P00533 25-1210, limits assumed).
T4 construct: whole, on cells; the cells are native tumor lines, not transfectants
As to the kind of experiment: flow cytometry titration on tumour cells (Fadu by the legend paragraph 18, A431 by Example 7 paragraph 83), PE anti-human IgG-Fc, geometric MFI; the table's head prints 'IC50 (nM)', Example 7 calls the values EC50 of binding; bispecific EGFR x Her3 on cells that carry both, the anti-Her3 curve (SI-1C1) stays near the baseline. In general terms: A flow cytometer gives signals particle by particle.

Test [7] concerns the target T3, Extracellular domain (Met 1-Ser 645) of …. The test is described as follows: BLI (Octet Red96), antibody on anti-human Fc sensor, curve fit at EGFR 11.1 nM.
Test [8] concerns the target T5, Monomeric EGFR ECD (SI-2R4) (UniProt P00533 25-645, limits assumed).
T5 construct: extracellular domain; Coated antigen of the serum stability ELISA
As to the kind of experiment: ELISA on coated monomeric EGFR ECD (SI-2R4), detection through Her3 ECD rabbit IgG1 (SI-1R1); antibody in 95% human serum, Day 7 at 55 C (degradation condition).

For test [9], the target named is T3, Extracellular domain (Met 1-Ser 645) of …. As to the kind of experiment: BLI (Octet Red96), antibody on anti-human Fc sensor, curve fit at EGFR 300 nM.
For test [10] the target is unchanged. As to the kind of experiment: BLI (Octet Red96), antibody on anti-human Fc sensor, curve fit at EGFR 33.3 nM.
Test [11] shares this target. As to the kind of experiment: BLI (Octet Red96), antibody on anti-human Fc sensor, average of the four curve fits.
The target in test [12] is T4, EGFR on A431 and FaDu tumor cells. The test is described as follows: flow cytometry titration on tumour cells (A431 by the legend paragraph 19, FaDu by Example 7 paragraph 83), PE anti-human IgG-Fc, geometric MFI; the table's head prints 'IC50 (nM)', Example 7 calls the values EC50 of binding; bispecific EGFR x Her3 on cells that carry both, the anti-Her3 curve (SI-1C1) stays near the baseline.

In test [13] the target is T5, Monomeric EGFR ECD (SI-2R4). The test is described as follows: ELISA on coated monomeric EGFR ECD (SI-2R4, 3 µg/mL), antibody after 3 days at 37 °C in 95% human serum, column 'Day 3 (37°C)'; M follows from the text, which gives the neighbouring 4.293e-010 as 429.3 pM.
For test [14] the target is unchanged. As to the kind of experiment: ELISA on coated monomeric EGFR ECD (SI-2R4), detection through Her3 ECD rabbit IgG1 (SI-1R1) and anti-rabbit IgG-HRP; antibody in 95% human serum, Day 0; Day 0, 95% human serum.
Test [15] shares this target. As to the kind of experiment: ELISA on coated monomeric EGFR ECD (SI-2R4), detection through Her3 ECD rabbit IgG1 (SI-1R1); antibody after 7 days in 95% human serum at 37 C; Day 7 at 37 C, 95% human serum.

Like-named read-outs stand apart in the source and are kept apart here.

B1: SI-1C5 (antibody, human IgG1, kappa, V domains shown)
VH: QVQLQQSGAEVKKPGSSVKVSCKASGYTFTNYYIYWVRQAPGQGLEWIGGINPTSGGSNFNEKFKTRVTITVDESTNTAYMELSSLRSEDTAFYFCARQGLWFDSDGRGFDFWGQGSTVTVSS
VL: DIQMTQSPSSLSASVGDRVTITCRSSQNIVHSNGNTYLDWYQQTPGKAPKLLIYKVSNRFSGVPSRFSGSGSGTDFTFTISSLQPEDIATYYCFQYSHVPWTFGQGTKLQITR
notes: Monospecific anti-EGFR IgG1 kappa
As to B1, the EC50 (read off the curve) (in general, the concentration at which the effect is half-maximal) in test [1] was about 5 nM.

B2: SI-1X1 (bispecific antibody, human IgG1, kappa)
heavy: not shown
light: QSALTQPASVSGSPGQSITISCTGTSSDVGGYNFVSWYQQHPGKAPKLMIYDVSDRPSGVSDRFSGSKSGNTASLIISGLQADDEADYYCSSYGSSSTHVIFGGGTKLTVLRTVAAPSVFIFPPSDEQLKSGTASVVCLLNNFYPREAKVQWKVDNALQSGNSQESVTEQDSKDSTYSLSSTLTLSKADYEKHKVYACEVTHQGLSSPVTKSFNRGEC
notes: Tetravalent: anti-HER3 IgG1 with anti-EGFR scFv on the heavy chain C-terminus (heavy chain entry holds IgG1 heavy chain, connector and scFv)
Consider B2, for which the “EC50 (read off the curve)” value in test [2] is about 0.2 nM. Also, the binding result in [3] was “binds”.

B3: SI-1X3 (bispecific antibody, human IgG1, kappa)
heavy: not shown
light: B2 light
notes: Tetravalent: anti-HER3 IgG1 with anti-EGFR (1C5) scFv on the heavy chain C-terminus
Turning to B3, the binding result in test [4] was “binds”.

B4: SI-1C4 (bispecific antibody, human IgG1, kappa, V domains shown)
VH: EVQLVESGGGLVQPGGSLRLSCAASGFTLSGDWIHWVRQAPGKGLEWVGEISAAGGYTDYADSVKGRFTISADTSKNTAYLQMNSLRAEDTAVYYCARESRVSFEAAMDYWGQGTLVTVSS
VL: DIQMTQSPSSLSASVGDRVTITCRASQNIATDVAWYQQKPGKAPKLLIYSASFLYSGVPSRFSGSGSGTDFTLTISSLQPEDFATYYCQQSEPEPYTFGQGTKVEIKR
notes: Control: two-in-one bispecific antibody against EGFR and HER3 (Schaefer et al. 2011 platform); also called IC4; benchmark antibody
For B4, the “EC50 (read off the curve)” value in test [2] is about 0.03 nM. The binding result in test [3] is “binds”.

B5: SI-1X4 (bispecific antibody, human IgG1, kappa)
heavy: not shown
light: DIQMTQSPSSLSASVGDRVTITCRSSQNIVHSNGNTYLDWYQQTPGKAPKLLIYKVSNRFSGVPSRFSGSGSGTDFTFTISSLQPEDIATYYCFQYSHVPWTFGQGTKLQITRTVAAPSVFIFPPSDEQLKSGTASVVCLLNNFYPREAKVQWKVDNALQSGNSQESVTEQDSKDSTYSLSSTLTLSKADYEKHKVYACEVTHQGLSSPVTKSFNRGEC
notes: Tetravalent: anti-EGFR (1C5) IgG1 with anti-HER3 scFv on the heavy chain C-terminus
As to B5, in test [4], the binding result is on record as “binds”. For the same molecule, the “EC50 (read off the curve)” value in [1] was about 5 nM.

B6: SI-1X4.2 (bispecific antibody)
heavy: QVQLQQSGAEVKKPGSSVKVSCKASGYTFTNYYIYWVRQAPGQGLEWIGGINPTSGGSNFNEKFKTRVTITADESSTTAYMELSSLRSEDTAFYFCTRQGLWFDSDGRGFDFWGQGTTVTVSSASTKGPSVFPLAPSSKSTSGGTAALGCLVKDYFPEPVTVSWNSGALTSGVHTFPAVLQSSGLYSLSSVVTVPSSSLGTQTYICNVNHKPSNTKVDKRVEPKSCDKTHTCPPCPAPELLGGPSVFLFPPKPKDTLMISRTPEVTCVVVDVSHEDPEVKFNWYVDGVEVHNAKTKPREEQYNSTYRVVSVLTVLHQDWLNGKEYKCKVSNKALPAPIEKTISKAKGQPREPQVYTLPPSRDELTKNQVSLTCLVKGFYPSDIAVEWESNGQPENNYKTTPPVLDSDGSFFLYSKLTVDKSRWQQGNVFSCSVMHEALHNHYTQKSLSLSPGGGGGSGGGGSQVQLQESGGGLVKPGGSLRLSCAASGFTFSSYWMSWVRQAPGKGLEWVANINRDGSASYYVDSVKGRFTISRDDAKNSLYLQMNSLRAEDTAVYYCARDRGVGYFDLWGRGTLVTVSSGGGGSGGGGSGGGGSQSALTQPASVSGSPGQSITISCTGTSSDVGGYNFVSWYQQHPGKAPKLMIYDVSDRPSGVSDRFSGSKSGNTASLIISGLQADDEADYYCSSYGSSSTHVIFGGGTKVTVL
light: B5 light
notes: Tetravalent: anti-EGFR (1C5.2) IgG1 with anti-HER3 scFv
For the molecule B6, the Kd – broadly, the concentration at which binding is half-saturated – in test [5] is 21 nM; in test [7], 6.19 nM; in [9], 36.9 nM; in [10], 9.44 nM; in test [11] it was 18.4 nM. Moreover, the koff – broadly, the rate constant with which the complex falls apart – was 0.00165 s⁻¹ in test [5]; 0.00135 s⁻¹ in [7]; 0.00171 s⁻¹ in test [9]; 0.00149 s⁻¹ in [10]; 0.00155 s⁻¹ in test [11]. Further, the kon – broadly, the second-order rate constant of association – in [5] amounted to 78800 M⁻¹ s⁻¹; in test [7], 218000 M⁻¹ s⁻¹; in test [9], 46300 M⁻¹ s⁻¹; in test [10] it was 158000 M⁻¹ s⁻¹; in test [11], 125000 M⁻¹ s⁻¹. For the same molecule, the EC50 (commonly the midpoint of the concentration-response curve) in [6] was determined as 4.02 nM; in [8], 4.25 nM; in [12], 2.28 nM; in test [13] it was 0.509 nM; in test [14], 0.429 nM; in [15] it was 0.467 nM.
